Data published in the supplement of paper PMC9170038.

Assays:
MS2 coat protein = assay: apparent KD of MS2 coat protein; higher = weaker reporter binding; details: Eterna round: R107
Experimental: (§1)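 RNA-MaP round R107: designed RNA switches with theophylline, tryptophan, arginine or FMN aptamers are transcribed on-chip within common flanks. They are titrated with SNAP-549-labelled MS2 coat protein in RNA-MaP buffer (100 mM Tris pH 7.5, 80 mM KCl, 4 mM MgCl2), without ligand or with the indicated ligand. Median apparent KD per design.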

[1] = test system: K4 kissing-loop RNA reporter; assay: apparent KD of K4 kissing-loop reporter; higher = weaker reporter binding; details: Eterna round: R107;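 note: bound reporter read as fluorescence of individual clusters on recovered sequencing chips by microscopy, with normalized cluster intensities fitted with a binding model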
Experimental: as §1, with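 “a labelled K4 kissing-loop RNA reporter” for “SNAP-549-labelled MS2 coat protein”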

[2] = input ligand: theophylline 20 uM
[3] = input ligand: theophylline 2 mM
[4] = input ligand: tryptophan 2.4 mM

Sequence | apparent KD of MS2 coat protein (MS2 coat protein; input ligand: arginine 13.2 mM) [µM] | apparent KD of MS2 coat protein (MS2 coat protein; input ligand: none) [µM] | apparent KD of MS2 coat protein (MS2 coat protein; [2]) [µM] | apparent KD of MS2 coat protein (MS2 coat protein; [3]) [µM] | apparent KD of MS2 coat protein (MS2 coat protein; [4]) [µM] | apparent KD of K4 kissing-loop reporter ([1]; input ligand: FMN 200 uM) [µM] | apparent KD of K4 kissing-loop reporter ([1]; input ligand: arginine 13.2 mM) [µM] | apparent KD of K4 kissing-loop reporter ([1]; input ligand: none) [µM] | apparent KD of K4 kissing-loop reporter [1, 2] [µM] | apparent KD of K4 kissing-loop reporter [1, 4] [µM]
AAAACAAACUCGGCCGCCACUCCCUCCCACCCAAGGACAUGAGGAUCACCCAUGUGGCAAAGCCCGAGGACCGGGAGAAACAAAA [Same State - Trytophan B] | 0.0181 | 0.0222 | 0.0283 | 0.0264 | 0.0203 |  |  |  |  | 
AAAAGAGGUGGAAGGAGCGGGAGACAUGAGGAUCACCCAUGUGAAGUUACGAAAGGUUCAGCCCAGGUAGGUCGCCAUGUCGAAA [eefemullin] | 0.00133 | 0.0175 | 0.0551 | 0.0588 | 0.0337 |  |  |  |  | 
AAAAUAAUGGCGGCCGCCACUAACUCAUAUACAUCAUGUACAUGAGGAUCACCCAUGUAGGUGUAUAGGACCGGGCCAUAAUUAA [39MS split4] | 0.0183 |  | 0.0222 | 0.0188 |  |  |  |  |  | 
AAAAUCCUACCUGAGGAUCACCCGGGUGAAGGAGCGCCCGAAAGGGCAGGUAGGUCGCACCUGAGGAUCACCCUGGUAAACCUAA [ArgEX 23 #DoubleMS2 #OpenEnded] | 0.103 | 0.172 | 0.183 | 0.234 | 0.154 |  |  |  |  | 
AAACAUGAGGAUCACCCAUGUAAUUCAGAAGGAGCGUCAUUAUUGACAGGUAGGUCGCUGAUAAAAUUUCUAUACAUCAUGUAUA [JR_SSArginiA_Sub013] | 0.0119 | 0.0124 | 0.0157 | 0.013 | 0.0133 |  |  |  |  | 
AAACAUUGCUGCGAUACCAGACAUGAGGAUCACCCAUGUACCAAGAAAACGUACAUAAAUGUCCCUUGGCAGCGCAGCAAUGAAA [MAT - Exclusion Theophlline B - Mod of Eli - D27] | 0.216 |  | 0.514 |  | 0.651 |  |  |  |  | 
AAACGACAUGAGGAUCACCCAUGUGCCGAUACCAGCCGGAUAUACGGCCCUUGGCAGCGGAGUAAAUCCGGAGGACAAUGGGUAA [Same State Theophylline A GF6] | 0.0377 | 0.057 | 0.0495 | 0.0924 | 0.0395 |  |  |  |  | 
AAAGAACAUGAGGAUCACCCAUGUACCGAAGGAGCGGCGAAGAAGCCAGGUAGGUCGCGGAACAUGAAGCGAUUAAGAAUUAAUU | 0.0215 | 0.0193 | 0.0257 | 0.021 | 0.0204 |  |  |  |  | 
AAAGAUCGGAAACGAUCGGCGGCUUGGGCGCGAGGACCGGUACGGCCGCCACUCGGGCAACAUGAGGAUCACCCAUGUUCCUCAU [ETA NP+V+V2 #17] | 0.0755 | 0.146 | 0.245 | 0.18 | 0.189 |  |  |  |  | 
AAAUAAAUACAUGAGGAUCACCCAUGUGAAGGAGCGCCCGUUAGGGCAGGUAGGUCGCACAUGAACUCCAAAGUGCAAAAGCACA [ArgEX 17 #OpenEnded] | 0.0357 | 0.0215 | 0.0297 | 0.0274 | 0.0254 |  |  |  |  | 
AAAUAAUAUUAAUUAAUUAUAUUAUUCUGACGAGGACCGGUACGGCCGCCACUCGGCCCAUGGUACAUGAGGAUCACCCAUGUCU [Same State - Tryptophan A] | 0.017 |  | 0.0172 | 0.0189 |  |  |  |  |  | 
AACAUGAGGAUCACCCAUGUCCCAUGUGAACGAGGACCGGUACGGCCGCCACUCGACCGAGGCGGCACAUGAGGAUCACCCGCAU [whbob_SS_trypto A_2s14] | 0.161 |  | 0.481 | 0.682 |  |  |  |  |  | 
AACAUGAGGAUCACCCAUGUCCCUCCCUCCCGAGGACCGGUACGGCCGCCACUCGCCCUCCCUCCCUAAGAAAGAAAGAAGAAGA [Same State - Trypopjan A] | 0.054 | 0.0379 | 0.038 | 0.0385 | 0.0321 |  |  |  |  | 
AACCACGAGUCGGCCGCCACUUGCAACUAGUUUCAGAAGCAGAAACAUGAGGAUCACCCAUGUCGAAGGACCGGGACUUUACAGG [theeternabot_sameState_MS2_Trp_B_18] | 0.0216 |  | 0.0232 | 0.0174 |  |  |  |  |  | 
AACCGAGGCUAUCCUCUACGACUAUGUGAUACCAGAAUAAUUUUAUUCCCUUGGCAGCAUGACAUGAGGAUCACCCAUGUCUCUU [SSTheo A #9] | 0.024 |  | 0.0388 |  | 0.034 |  |  |  |  | 
AACCGAGGCUAUCCUCUCCGCCUAUGUGAUACCAGAAUAAUUUUAUUCCCUUGGCAGCAUGACAUGAGGAUCACCCAUGUCUCUU [SSTheo A #11] | 0.0152 |  | 0.0194 |  | 0.0173 |  |  |  |  | 
AAGAAGUUUUGAUUUUUAUGAAGUAGUGAUACCAGUCAAGAAAGAGACCCUUGGCAGCGCAACAUGAGGAUCACCCAUGUAAGAA [A random design] | 0.0262 |  | 0.0267 |  | 0.0242 |  |  |  |  | 
AAGCGGGCGACGGCCGCCACUUGCCUGUAAUUAGAGAAGGCACAUGAGGAUCACCCAUGUCCCGCAAGGACCGGGUUGCCUCACU [Ditiraorce] | 0.0936 |  | 0.484 | 0.58 |  |  |  |  |  | 
AAGGAACAUGAGGAUCACCCAUGUACCGAAGGAGCGGCAGAGAUGCCAGGUAGGUCGCGGUACUUGCCGGGUCAUUCAUGCAGAG [Arraiste] | 0.0391 | 0.0263 | 0.0306 | 0.0328 | 0.0239 |  |  |  |  | 

Sequence | apparent KD of MS2 coat protein (MS2 coat protein; input ligand: arginine 13.2 mM) [µM] | apparent KD of MS2 coat protein (MS2 coat protein; input ligand: none) [µM] | apparent KD of MS2 coat protein (MS2 coat protein; [2]) [µM] | apparent KD of MS2 coat protein (MS2 coat protein; [3]) [µM] | apparent KD of MS2 coat protein (MS2 coat protein; [4]) [µM] | apparent KD of K4 kissing-loop reporter ([1]; input ligand: FMN 200 uM) [µM] | apparent KD of K4 kissing-loop reporter ([1]; input ligand: arginine 13.2 mM) [µM] | apparent KD of K4 kissing-loop reporter ([1]; input ligand: none) [µM] | apparent KD of K4 kissing-loop reporter [1, 2] [µM] | apparent KD of K4 kissing-loop reporter [1, 4] [µM]
AAGGUGAUCCCAGAUACCAGCCUAACAUGAGGAUCACCCAUGUUUGGGACGAAAGUCCCAGGCCCUUGGCAGCUGGGUUGCCAAG [SSTheo B #17] | 0.0488 |  | 0.131 |  | 0.185 |  |  |  |  | 
AAUAAACAUGAGGAUCACCCAUGUAUGGAAGGAGCGGUGAAUAAACCAGGUAGGUCGCCAGUGUGAGGGUCAUCUAUGUAAUCAA [Exclusion - Arginine A (Freestyle 3)] | 0.0291 | 0.0421 | 0.0583 | 0.0493 | 0.0495 |  |  |  |  | 
AAUAACAUGAGGAUCACCCAUGUAAAAGAUACCAGAUGCAUGAUGAUCCCUUGGCAGCUUAAACGCGAUUGAUUACAAUCGCGAA [Mat - Same State Theophlline A - Mod of Eli - D10] | 0.0409 |  | 0.0719 |  | 0.0212 |  |  |  |  | 
AAUAACAUGAGGAUCACCCAUGUAAAAGAUACCAGAUGCAUGAUGAUCCCUUGGCAGCUUAACGCUGAUUGGAAACAAUCAGCGA [Mat - Same State Theophlline A - Mod of Eli - D9] | 0.175 |  | 0.0621 |  | 0.0147 |  |  |  |  | 
AAUAAGCAGCUGCCUUCCUCAUGAGCAGAUACCAGCUAGGAAACUAGCCCUUGGCAGCUGCAACAUGAGGAUCACCCAUGUAAUA [(T)'-(M)'-(T1)-(T2)-(M1)-(M2)_Design4] | 0.0224 |  | 0.0812 |  | 0.0437 |  |  |  |  | 
AAUAAUAACAUGGGUGCACGAGUGGCAUAACGAGGACCGGUACGGCCGCCACUCGAACAUGAGGAUCACCCAUGUAGCCACUCGA [M'-T'-T-MS2-T'' - Design 4] | 0.0551 | 0.102 | 0.102 | 0.132 | 0.0205 |  |  |  |  | 
AAUAAUAAGGCGGCCGCCACUAAACAUGAGGAUCACCCAUGUCUCGAGCGCUUGCAUUUGGGAAGUAGGACCGGGCCAAUAAUAA [Exclusion - Tryptophan B (Freestyle 4)] | 0.0145 | 0.0214 | 0.0288 | 0.0226 | 0.0194 |  |  |  |  | 
AAUAAUAUGAGGAUCACCCAUAUAAAAGAUACCAGAGUGAUGAUCCUCCCUUGGCAGCUUAACGCUGAUUGAUUACAAUCAGCGA | 0.0687 | 0.0475 | 0.085 | 0.234 | 0.0255 |  |  |  |  | 
AAUAGCAUGAGGAUCACCCAUGUAAAAGAUACCAGAGUGAUGAUCCUCCCUUGGCAGCUUAACGCUGAUUGAUUACAAUCAGCGA | 0.037 | 0.0449 | 0.0978 | 0.229 | 0.0344 |  |  |  |  | 
AAUCUGUCGGGUGAUACCAGCCUCGGCACGUCUCGUGCCGAACAUGAGGAUCACCCAUGUGGCCCUUGGCAGCACAUGACAAAUC [Teaton] | 0.0718 |  | 0.729 |  | 0.606 |  |  |  |  | 
AAUGUAUGGCACAUGAGGAUCACCCAUGUGCGAGGACCGGUACGGCCGCCACUCGGUCCUGGAUUCUUAUUACUAUACAUUAAUG [XTryp A #16] | 0.014 |  | 0.0189 | 0.0154 |  |  |  |  |  | 
AAUUAAACAUCGGCCGCCACUUACUCAUGAGGUAACAACAUGAGGAUCACCCAUGUUUGAGGAUCAAGGACCGGGAUGUAAUUUU [AstrosSSTryB#3] | 0.028 |  | 0.0403 | 0.0351 |  |  |  |  |  | 
AAUUAUCAGUCGGCCGCCACUGACACAUGAGGAUCACCCAUGUAAUAUGGGUAAAAUUAACUGAACAGGACCGGGACAAAUGCUA [JR_SSTryptoB_Sub021] | 0.135 |  | 0.472 | 0.803 |  |  |  |  |  | 
AAUUCCUCACAUGAGGAUCACCCAUGUGAAGGAGCGCGGAAUAACGCAGGUAGGUCGCACAUGGAAACCGCUGCGAAAGCAGCAA [MAT - Exclusion Arginine A - Mod of Eli - D26] | 0.0131 | 0.0187 | 0.024 | 0.0181 | 0.0163 |  |  |  |  | 
AAUUGGCACUGAAGGAGCGAGUUUACCUAAAUAACAUGAGGAUCACCCAUGUAAAAUGGGACUCAGGUAGGUCGCAGUUGUCAAA [Same State Arginine B GF 22] | 0.048 | 0.0576 | 0.0764 | 0.0637 | 0.0615 |  |  |  |  | 
AAUUGGGUUGGUGAGGUGGUUGGAGGCGAUACCAGCGUGGAAACACGCCCUUGGCAGCGCCAGGACAUGAGGAUCACCCAUGUAA [Praha] | 0.0321 | 0.26 | 0.486 | 0.713 | 0.205 |  |  |  |  | 
AAUUGGGUUGGUGAGGUGGUUGGAGGCGAUACCAGCGUGGAAACACGCCCUUGGCAGCGCCAGGACAUGAGGAUCACCCAUGUUC [Ostrava] | 0.0196 |  | 0.036 |  | 0.0221 |  |  |  |  | 
UUUUUCGCGUUUGAUACCAGCAGAGUUGUUCGUGUCUGGAACAUGAGUGAUGUUCAUGUCUGCCCUUGGCAGCAAACGGGAGAAG [KL-XTheo-B13] |  |  |  |  |  | 0.127 | 0.112 | 0.103 | 0.0878 | 0.124
